Laboratory results as given in patent publication US20170304435A1 (GOVERNING COUNCIL OF THE UNIVERSITY OF TORONTO, published 2017).
Changes are numbered by the printed parent chain. Numbers in names are those of the source.

T1: TRAF2, endogenous in Jurkat cells (UniProt Q12933 2-501, limits assumed)
T1 construct: Endogenous protein probed by immunoblot with rabbit anti-TRAF2 (sc-876)
T1 sequence (looked up): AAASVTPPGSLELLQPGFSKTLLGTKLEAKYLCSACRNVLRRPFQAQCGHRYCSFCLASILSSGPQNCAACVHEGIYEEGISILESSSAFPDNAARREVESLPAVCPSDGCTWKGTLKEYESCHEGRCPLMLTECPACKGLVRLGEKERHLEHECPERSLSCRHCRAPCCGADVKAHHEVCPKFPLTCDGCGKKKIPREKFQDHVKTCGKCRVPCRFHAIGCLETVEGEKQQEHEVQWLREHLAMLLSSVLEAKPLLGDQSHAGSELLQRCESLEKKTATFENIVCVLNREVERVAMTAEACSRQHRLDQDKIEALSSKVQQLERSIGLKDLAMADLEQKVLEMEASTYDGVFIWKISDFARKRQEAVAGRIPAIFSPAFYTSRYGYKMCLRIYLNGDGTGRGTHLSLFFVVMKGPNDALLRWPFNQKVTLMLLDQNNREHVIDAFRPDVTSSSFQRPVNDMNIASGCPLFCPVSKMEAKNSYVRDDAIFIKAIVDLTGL

T2: TRAF6 (ubiquitin ligase, tumor necrosis factor receptor-associated factor 6), endogenous in Jurkat or 293T … (UniProt Q9Y4K3 1-522)
T2 construct: Endogenous protein detected by immunoblot or immunostaining with mouse anti-TRAF6 (sc-8409)
T2 sequence (looked up): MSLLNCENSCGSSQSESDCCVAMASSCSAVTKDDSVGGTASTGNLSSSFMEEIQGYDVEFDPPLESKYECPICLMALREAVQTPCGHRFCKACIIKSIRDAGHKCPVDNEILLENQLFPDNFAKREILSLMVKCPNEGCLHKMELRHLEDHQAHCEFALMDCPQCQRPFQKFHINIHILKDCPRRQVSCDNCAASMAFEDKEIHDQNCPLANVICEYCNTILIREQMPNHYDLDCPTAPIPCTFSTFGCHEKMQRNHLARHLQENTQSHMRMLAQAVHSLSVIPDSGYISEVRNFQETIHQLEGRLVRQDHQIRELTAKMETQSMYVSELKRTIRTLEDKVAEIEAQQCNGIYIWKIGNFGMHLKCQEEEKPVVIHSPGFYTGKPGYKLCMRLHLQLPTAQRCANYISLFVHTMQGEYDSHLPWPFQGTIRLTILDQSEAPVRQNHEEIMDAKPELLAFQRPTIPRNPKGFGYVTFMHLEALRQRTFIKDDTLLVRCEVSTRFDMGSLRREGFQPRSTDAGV

B1: FLAG-TIFA wild type (TRAF-interacting forkhead associated protein A with one N-terminal FLAG sequence), from HBP-treated cells (other, not shown: small tags and cut ends)
chain: MTSFEDADTEETVTCLQMTVYHPGQLQCGIFQSISFNREKLPSSEVVKFGRNSNICHYTFQDKQVSRVQFSLQLFKKFNSSVLSFEIKNMSKKTNLIVDSRELGYLNKMDLPYRCMVRFGEYQFLMEKEDGESLEFFETQFILSPRSLLQENNWPPHRPIPEYGTYSLCSSQSSSPTEMDENES
modifications: phospho-threonine 9 (pT9), found only after treatment with HBP
notes: Forms oligomers after HBP; also called FLAG-TIFA wildtype (wt); Wt
B2: FLAG-TIFA E178A (mutation in the TRAF6 binding site) (other, not shown: small tags and cut ends)
chain: B1 chain with E178A
notes: Point mutant of FLAG-TIFA; stably expressed with endogenous TIFA knocked down; also called TRAF6 (E178A) mutant
B3: FLAG-TIFA G50E/S66A (mutations in the FHA domain) (other, not shown: small tags and cut ends)
chain: B1 chain with G50E, S66A
notes: Double point mutant of FLAG-TIFA; stably expressed with endogenous TIFA knocked down; also called FHA mutant
B4: FLAG-TIFA T9A (other, not shown: small tags and cut ends)
chain: B1 chain with T9A
notes: Point mutant of FLAG-TIFA made with QuickChange II; stably expressed with endogenous TIFA knocked down

Columns and labels:
[1] = molecular target: T1, TRAF2, endogenous in Jurkat cells; test: FLAG-TIFA immunoprecipitation from Jurkat cells, immunoblot for TRAF2
Protocol: Briefly, cells were lysed in 50 mM Hepes-KOH pH 8.0, 100 mM KCl, 2 mM EDTA, 0.1% NP40, 10% glycerol. Soluble cell lysates were pre-cleared for 2 hr with mouse IgG agarose (Sigma) and immunoprecipitated overnight at 4° C. Proteins eluted using 0.5 M NH₄OH pH 11 (for mass-spectrometry), or 3× FLAG-peptide (Sigma) (immunoblot analysis). […] Data were analyzed by Scaffold PTM (Proteome).

[2] = molecular target: the molecule itself; test: native PAGE and FLAG immunoblot, HBP-treated Jurkat cells
[3] = molecular target: T2, TRAF6 (ubiquitin ligase, tumor necrosis …); test: FLAG immunoprecipitation from HBP-treated Jurkat cells, immunoblot for TRAF6
Protocol: Briefly, cells were lysed in 50 mM Hepes-KOH pH 8.0, 100 mM KCl, 2 mM EDTA, 0.1% NP40, 10% glycerol. Soluble cell lysates were pre-cleared for 2 hr with mouse IgG agarose (Sigma) and immunoprecipitated overnight at 4° C. Proteins eluted using 0.5 M NH₄OH pH 11 (for mass-spectrometry), or 3× FLAG-peptide (Sigma) (immunoblot analysis).

[4] = molecular target: the molecule itself; test: confocal microscopy of FLAG-TIFA aggregates in HBP-treated 293T cells
[5] = molecular target: the molecule itself; test: confocal microscopy of TIFA aggregates in HBP-treated 293T cells

Binder	binding result [1]	binding result [2]	binding result [3]	binding result [4]	binding result [5]
B1	no binding	binds			
B2			no binding	binds	
B3			no binding		
B4			no binding		no binding
